Test [1] has as its target T1, human annexin A1 (Anx-A1) (human, UniProt P04083 2-346).
T1 construct: also called full-length human Anx-A1 (ANXA1-002 / ANXA1-003 transcripts)
T1 sequence: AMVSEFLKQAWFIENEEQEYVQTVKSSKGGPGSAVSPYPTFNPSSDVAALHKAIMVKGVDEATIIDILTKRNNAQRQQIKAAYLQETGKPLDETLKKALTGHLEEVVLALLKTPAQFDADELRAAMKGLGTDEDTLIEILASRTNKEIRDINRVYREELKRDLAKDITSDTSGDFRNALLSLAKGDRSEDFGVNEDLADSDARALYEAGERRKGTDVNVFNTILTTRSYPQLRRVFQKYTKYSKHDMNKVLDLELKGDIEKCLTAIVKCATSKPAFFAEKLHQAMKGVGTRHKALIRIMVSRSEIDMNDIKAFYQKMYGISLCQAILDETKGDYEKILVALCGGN
Briefly: Biacore SPR, average of three assays; antibody captured, Anx-A1 as analyte. Here is the method: (§1) The Mdx001 antibody was immobilised on a chip via a goat anti-mouse IgG. Ligand (Anx-A1) was passed over the immobilised antibody in running buffer. Anx-A1 was used at a concentration of 5, 10, 20, 40 or 80 nM. In each experiment, a total of 150 μl Anx-A1-containing running buffer was passed over the antibody, at a flow rate of 30 μl/min.
(§2) Regeneration was performed using a regeneration buffer, 10 mM glycine-HCl, pH 2. To regenerate the chip, 70 μl regeneration buffer was passed over the chip at a rate of 10 μl/min.
(§3) Experiments were performed in triplicate.
In general terms: In SPR one partner is held on a chip, and binding of the other changes the refractive index at the surface.

The target of test [2] is T1, human annexin A1 (Anx-A1). Briefly: Biacore SPR, assay 1 of 3; antibody captured via goat anti-mouse IgG, Anx-A1 at 5-80 nM as analyte, 1 mM CaCl2. How it is done:
as §1, §2, §3

Test [3] concerns the target T1, human annexin A1 (Anx-A1). Put plainly: Biacore SPR, assay 2 of 3; antibody captured via goat anti-mouse IgG, Anx-A1 at 5-80 nM as analyte, 1 mM CaCl2. How it is done: as §1, §2, §3
Test [4] has as its target T1, human annexin A1 (Anx-A1). Put plainly: Biacore SPR, assay 3 of 3; antibody captured via goat anti-mouse IgG, Anx-A1 at 5-80 nM as analyte, 1 mM CaCl2. Here is the method:
as §1, §2, §3

Test [5] deals with T1, human annexin A1 (Anx-A1). Briefly: Biacore SPR, assay 1 of 3, method of Example 4; first of three experiments. Here is the method: as §1
(§4) In light of the ELISA results, the LC1(mod 1)HC4 and LC2(mod 1)HC2 antibodies were discarded. […] Binding of LC1(mod 2)HC4 and LC2(mod 2)HC2 to Anx-A1 was quantified by Biacore, using the same method as described in Example 4. As in Example 4, the Biacore experiments were performed in triplicate. […] LC1(mod 2)HC4 was given the name MDX-L1M2H4. […] LC2(mod 2)HC2 was given the name MDX-L2M2H2.

In test [6] the target is T1, human annexin A1 (Anx-A1). Put plainly: Biacore SPR, assay 3 of 3, method of Example 4; third of three experiments. How it is done: as §1, §4
Test [7] addresses T1, human annexin A1 (Anx-A1). Put plainly: Biacore SPR, assay 2 of 3, method of Example 4; second of three experiments. Here is the method:
as §1, §4

Test [8] deals with T1, human annexin A1 (Anx-A1). Put plainly: Biacore SPR, average of three assays, method of Example 4; average of the three experiments. How it is done:
as §1, §4

B1: Mdx001 (antibody, mouse IgG2b, kappa, V domains shown)
VH: QVQLQQSGPELVRPGTSVKMSCKASGYTFTNYWIGWAKQRPGHGLEWIGDIYPGGDYTNYNEKFKGKATLTADKSSSTAYMQFSSLTSEDSAIYYCARWGLGYYFDYWGQGITLTVSS
VL: DAVMTQTPLSLPVSLGDQVSISCRSSQSLENSNGKTYLNWYLQKPGQSPQLLIYGVSNRFSGVLDRFSGSGSGTDFTLKISRVEAEDLGVYFCLQVTHVPYTFGGGTKLEIKR
notes: also called murine anti-Anx-A1 antibody
As to B1, the Kd was found to be 8.49 nM in test [1], 9.43 nM in test [2], 9.58 nM in test [3] and 6.46 nM in test [4].

B2: MDX-L2M2H2 (antibody, human IgG1, kappa, V domains shown)
VH: QVQLVQSGPEVKKPGESLKISCKGSGYTFTNYWIGWVRQAPGKGLEWMGDIYPGGDYTNYNEKFKGQVTISADKSISTAYLQWSSLKASDTAIYYCARWGLGYYFDYWGRGTLVTVSS
VL: DIVMTQTPLSLSVTPGQPASISCRSSQSLENSNAKTYLNWYLQKPGQSPQLLIYGVSNRFSGVPDRFSGSGSGTDFTLKISRVEAEDVGVYYCLQVTHVPYTFGQGTKVEIKR
notes: also called LC2(mod 2)HC2; variant 1 of MDX-L2H2
For B2, the dissociation constant (Kd) in test [5] was determined as 4.44 nM; in test [6], 5.17 nM; in test [7] it was 4.37 nM; in test [8], 4.66 nM.

The Kd is the constant that tells how readily two partners part at equilibrium. A low value points to tighter binding.
